B1: selenomethionine MORC2 CC3 domain (residues 901-1003), as crystallised (domain or fragment, human, UniProt Q9Y6X9 901-1003, looked up)
chain: LSTNHETIDLLVQILRNCLRYFLPPSFPISKKQLSAMNSDELISFPLKEYFKQYEVGLQNLCNSYQSRADSRAKASEESLRTSERKLRETEEKLQKLRTNIVA
modifications: selenomethionine (SeMet) in place of methionine
notes: MORC2, human, UniProt Q9Y6X9, residues 901-1003; The methods say 'MORC2 CC3 fused with a GPGS linker'; also called CC3 dimer; source: E. coli B834 in M9 medium with selenomethionine, purified (SEC, Superdex 75)
B2: full-length human MORC2 (MORC2FL, residues 1-1032) (natural protein, UniProt Q9Y6X9 1-1032, looked up)
chain: MAFTNYSSLNRAQLTFEYLHTNSTTHEFLFGALAELVDNARDADATRIDIYAERREDLRGGFMLCFLDDGAGMDPSDAASVIQFGKSAKRTPESTQIGQYGNGLKSGSMRIGKDFILFTKKEDTMTCLFLSRTFHEEEGIDEVIVPLPTWNARTREPVTDNVEKFAIETELIYKYSPFRTEEEVMTQFMKIPGDSGTLVIIFNLKLMDNGEPELDIISNPRDIQMAETSPEGTKPERRSFRAYAAVLYIDPRMRIFIHGHKVQTKRLSCCLYKPRMYKYTSSRFKTRAEQEVKKAEHVARIAEEKAREAESKARTLEVRLGGDLTRDSRVMLRQVQNRAITLRREADVKKRIKEAKQRALKEPKELNFVFGVNIEHRDLDGMFIYNCSRLIKMYEKVGPQLEGGMACGGVVGVVDVPYLVLEPTHNKQDFADAKEYRHLLRAMGEHLAQYWKDIAIAQRGIIKFWDEFGYLSANWNQPPSSELRYKRRRAMEIPTTIQCDLCLKWRTLPFQLSSVEKDYPDTWVCSMNPDPEQDRCEASEQKQKVPLGTFRKDMKTQEEKQKQLTEKIRQQQEKLEALQKTTPIRSQADLKKLPLEVTTRPSTEEPVRRPQRPRSPPLPAVIRNAPSRPPSLPTPRPASQPRKAPVISSTPKLPALAAREEASTSRLLQPPEAPRKPANTLVKTASRPAPLVQQLSPSLLPNSKSPREVPSPKVIKTPVVKKTESPIKLSPATPSRKRSVAVSDEEEVEEEAERRKERCKRGRFVVKEEKKDSNELSDSAGEEDSADLKRAQKDKGLHVEVRVNREWYTGRVTAVEVGKHVVRWKVKFDYVPTDTTPRDRWVEKGSEDVRLMKPPSPEHQSLDTQQEGGEEEVGPVAQQAIAVAEPSTSECLRIEPDTTALSTNHETIDLLVQILRNCLRYFLPPSFPISKKQLSAMNSDELISFPLKEYFKQYEVGLQNLCNSYQSRADSRAKASEESLRTSERKLRETEEKLQKLRTNIVALLQKVQEDIDINTDDELDAYIEDLITKGD
notes: MORC2, human, UniProt Q9Y6X9, residues 1-1032; cDNA amplified from a HeLa cDNA library; The plasmid is called MORC2-6xHis; Construct details are in Supplementary file 2; source: HEK293F, transiently transfected, purified (Ni-NTA, Superose 6 gel filtration), nucleic acid-free
B3: MORC2 fragment 744-1032 (domain or fragment, human, UniProt Q9Y6X9 744-1032, looked up)
chain: DEEEVEEEAERRKERCKRGRFVVKEEKKDSNELSDSAGEEDSADLKRAQKDKGLHVEVRVNREWYTGRVTAVEVGKHVVRWKVKFDYVPTDTTPRDRWVEKGSEDVRLMKPPSPEHQSLDTQQEGGEEEVGPVAQQAIAVAEPSTSECLRIEPDTTALSTNHETIDLLVQILRNCLRYFLPPSFPISKKQLSAMNSDELISFPLKEYFKQYEVGLQNLCNSYQSRADSRAKASEESLRTSERKLRETEEKLQKLRTNIVALLQKVQEDIDINTDDELDAYIEDLITKGD
notes: MORC2, human, UniProt Q9Y6X9, residues 744-1032; The expression system and tags are in Supplementary file 2
B4: Trx-tagged MORC2 901-1032 Y921A (domain or fragment, human, UniProt Q9Y6X9 901-1032, looked up)
chain: LSTNHETIDLLVQILRNCLRAFLPPSFPISKKQLSAMNSDELISFPLKEYFKQYEVGLQNLCNSYQSRADSRAKASEESLRTSERKLRETEEKLQKLRTNIVALLQKVQEDIDINTDDELDAYIEDLITKGD
notes: MORC2, human, UniProt Q9Y6X9, residues 901-1032 with Y921A; the same legend also prints residue 921 as F921; source: E. coli, purified
B5: Trx-tagged MORC2 901-1032 L911Q (domain or fragment, human, UniProt Q9Y6X9 901-1032, looked up)
chain: LSTNHETIDLQVQILRNCLRYFLPPSFPISKKQLSAMNSDELISFPLKEYFKQYEVGLQNLCNSYQSRADSRAKASEESLRTSERKLRETEEKLQKLRTNIVALLQKVQEDIDINTDDELDAYIEDLITKGD
notes: MORC2, human, UniProt Q9Y6X9, residues 901-1032 with L911Q; source: E. coli, purified
B6: Trx-tagged MORC2 901-1032 L958Q (domain or fragment, human, UniProt Q9Y6X9 901-1032, looked up)
chain: LSTNHETIDLLVQILRNCLRYFLPPSFPISKKQLSAMNSDELISFPLKEYFKQYEVGQQNLCNSYQSRADSRAKASEESLRTSERKLRETEEKLQKLRTNIVALLQKVQEDIDINTDDELDAYIEDLITKGD
notes: MORC2, human, UniProt Q9Y6X9, residues 901-1032 with L958Q; source: E. coli, purified
B7: MORC2 CC3-IBD (residues 901-1032) (domain or fragment, human, UniProt Q9Y6X9 901-1032, looked up)
chain: LSTNHETIDLLVQILRNCLRYFLPPSFPISKKQLSAMNSDELISFPLKEYFKQYEVGLQNLCNSYQSRADSRAKASEESLRTSERKLRETEEKLQKLRTNIVALLQKVQEDIDINTDDELDAYIEDLITKGD
notes: MORC2, human, UniProt Q9Y6X9, residues 901-1032; The legend names no Trx tag on it, and it may be the same as the Trx-tagged m4; The methods say fragments carry a GPGS linker; Construct details are in Supplementary file 2; also called MORC2^901-1032
B8: Trx-tagged MORC2 901-1032 I908Q (domain or fragment, human, UniProt Q9Y6X9 901-1032, looked up)
chain: LSTNHETQDLLVQILRNCLRYFLPPSFPISKKQLSAMNSDELISFPLKEYFKQYEVGLQNLCNSYQSRADSRAKASEESLRTSERKLRETEEKLQKLRTNIVALLQKVQEDIDINTDDELDAYIEDLITKGD
notes: MORC2, human, UniProt Q9Y6X9, residues 901-1032 with I908Q; source: E. coli, purified
B9: Trx-tagged MORC2 901-1032 Y954A (domain or fragment, human, UniProt Q9Y6X9 901-1032, looked up)
chain: LSTNHETIDLLVQILRNCLRYFLPPSFPISKKQLSAMNSDELISFPLKEYFKQAEVGLQNLCNSYQSRADSRAKASEESLRTSERKLRETEEKLQKLRTNIVALLQKVQEDIDINTDDELDAYIEDLITKGD
notes: MORC2, human, UniProt Q9Y6X9, residues 901-1032 with Y954A; source: E. coli, purified
B10: wild-type MORC2 901-1032 with Trx-tag (domain or fragment, human, UniProt Q9Y6X9 901-1032, looked up)
chain: LSTNHETIDLLVQILRNCLRYFLPPSFPISKKQLSAMNSDELISFPLKEYFKQYEVGLQNLCNSYQSRADSRAKASEESLRTSERKLRETEEKLQKLRTNIVALLQKVQEDIDINTDDELDAYIEDLITKGD
notes: MORC2, human, UniProt Q9Y6X9, residues 901-1032; Cloned in a modified pET32m vector with Trx-tag (14 kDa); also called WT MORC2^901-1032 (with Trx-tag); WT CC3-IBD; source: E. coli, purified (Ni-NTA, SEC)
B11: Trx-tagged MORC2 901-1032 F922Q (domain or fragment, human, UniProt Q9Y6X9 901-1032, looked up)
chain: LSTNHETIDLLVQILRNCLRYQLPPSFPISKKQLSAMNSDELISFPLKEYFKQYEVGLQNLCNSYQSRADSRAKASEESLRTSERKLRETEEKLQKLRTNIVALLQKVQEDIDINTDDELDAYIEDLITKGD
notes: MORC2, human, UniProt Q9Y6X9, residues 901-1032 with F922Q; source: E. coli, purified
B12: Trx-tagged MORC2 901-1032 F951Q (domain or fragment, human, UniProt Q9Y6X9 901-1032, looked up)
chain: LSTNHETIDLLVQILRNCLRYFLPPSFPISKKQLSAMNSDELISFPLKEYQKQYEVGLQNLCNSYQSRADSRAKASEESLRTSERKLRETEEKLQKLRTNIVALLQKVQEDIDINTDDELDAYIEDLITKGD
notes: MORC2, human, UniProt Q9Y6X9, residues 901-1032 with F951Q; source: E. coli, purified
B13: Trx-tagged MORC2 901-1032 L915Q (domain or fragment, human, UniProt Q9Y6X9 901-1032, looked up)
chain: LSTNHETIDLLVQIQRNCLRYFLPPSFPISKKQLSAMNSDELISFPLKEYFKQYEVGLQNLCNSYQSRADSRAKASEESLRTSERKLRETEEKLQKLRTNIVALLQKVQEDIDINTDDELDAYIEDLITKGD
notes: MORC2, human, UniProt Q9Y6X9, residues 901-1032 with L915Q; source: E. coli, purified
B14: Trx-901-975 (CC3 truncation) (domain or fragment, human, UniProt Q9Y6X9 901-975, looked up)
chain: LSTNHETIDLLVQILRNCLRYFLPPSFPISKKQLSAMNSDELISFPLKEYFKQYEVGLQNLCNSYQSRADSRAKA
notes: MORC2, human, UniProt Q9Y6X9, residues 901-975; The Trx tag points to the bacterial pET32m-type vector; Construct details are in Supplementary file 2; also called truncated CC3 constructs (residues 901-975); CC3 N-terminal region
B15: MORC2 CTDΔCW (residues 537-1032) (domain or fragment, human, UniProt Q9Y6X9 537-1032, looked up)
chain: EASEQKQKVPLGTFRKDMKTQEEKQKQLTEKIRQQQEKLEALQKTTPIRSQADLKKLPLEVTTRPSTEEPVRRPQRPRSPPLPAVIRNAPSRPPSLPTPRPASQPRKAPVISSTPKLPALAAREEASTSRLLQPPEAPRKPANTLVKTASRPAPLVQQLSPSLLPNSKSPREVPSPKVIKTPVVKKTESPIKLSPATPSRKRSVAVSDEEEVEEEAERRKERCKRGRFVVKEEKKDSNELSDSAGEEDSADLKRAQKDKGLHVEVRVNREWYTGRVTAVEVGKHVVRWKVKFDYVPTDTTPRDRWVEKGSEDVRLMKPPSPEHQSLDTQQEGGEEEVGPVAQQAIAVAEPSTSECLRIEPDTTALSTNHETIDLLVQILRNCLRYFLPPSFPISKKQLSAMNSDELISFPLKEYFKQYEVGLQNLCNSYQSRADSRAKASEESLRTSERKLRETEEKLQKLRTNIVALLQKVQEDIDINTDDELDAYIEDLITKGD
notes: MORC2, human, UniProt Q9Y6X9, residues 537-1032; Bacterial constructs were made with MBP or Trx fusion proteins; Which one was used here, and whether it was kept, is in Supplementary file 2; source: Escherichia coli, purified
B16: MORC2 CC3 domain (residues 901-1003) (domain or fragment, human, UniProt Q9Y6X9 901-1003, looked up)
chain: LSTNHETIDLLVQILRNCLRYFLPPSFPISKKQLSAMNSDELISFPLKEYFKQYEVGLQNLCNSYQSRADSRAKASEESLRTSERKLRETEEKLQKLRTNIVA
notes: MORC2, human, UniProt Q9Y6X9, residues 901-1003; Cloned in a modified pET32m vector (Trx-tag); Used unlabelled for SEC-SLS and uniformly 15N-labelled for the NMR titration; The methods say fragments carry a GPGS linker; also called MORC2^901-1003; coiled-coil 3; source: E. coli, purified (Ni-NTA, SEC); 15N-labelled from M9 medium for NMR

Target: the molecule itself
Test: crystal structure; SeMet CC3 (901-1003); sitting drop, 0.1 M citric acid pH 3.5, 25% w/v PEG 3350, 16 °C; 3.1 Å

Binding result, binds:
B1

Target: the molecule itself
Test: SEC-MALS; size-exclusion chromatography with static light scattering (miniDawn); MORC2FL at 70 μM; 50 mM Tris-HCl pH 8.0, 1000 mM NaCl, 1 mM EDTA, 1 mM DTT; no ATP; also run with 601 DNA

Stoichiometry N, 2:
B2

Target: the molecule itself
Test: SEC-MALS; size-exclusion chromatography with static light scattering (miniDawn); fragments at 70 μM; Superdex 200 increase or Superose 6 increase; 50 mM Tris-HCl pH 8.0, 150 mM NaCl, 1 mM EDTA, 1 mM DTT

Stoichiometry N, 2:
B3
B7
B10
B14
B15
B16

Binding result, binds:
B4
B5
B6
B8
B9
B11
B12
B13

— publication PMC13189624, “MORC2 mediates transcriptional regulation through liquid-liquid phase separation” (eLife, 2026)
